Assay results: the Human Domainome abundance scans (Beltran et al. 2025)
± gives the uncertainty stated by the source.

B1: Ubiquitin-protein ligase residues 30 to 86; numbered along this chain, Q05086 (parent)
chain: KHLIERYYHQLTEGCGNEACTNEFCASCPTFLRMDNNAAAIKALELYKINAKLCDPH
B2: Zinc finger homeobox protein 4, residues 2086 to 2141; numbered along this chain, Q86UP3 (parent)
chain: RPRTRITDDQLKILRAYFDINNSPSEEQIQEMAEKSGLSQKVIKHWFRNTLFKERQ

Variants of: B1
Assay: abundance fitness (aPCA) (normalised: wild type 0, dead -1); higher = more abundant; growth selection in yeast, the domain comes from the species named
Details: Homo sapiens

Variant	abundance fitness
L53K	-0.071 ± 0.093
L53M	-0.073 ± 0.11
L53N	-0.433 ± 0.17
L53P	-0.23 ± 0.11
L53Q	0.04 ± 0.11
L53S	-0.097 ± 0.074
L53T	-0.109 ± 0.081
L53V	-0.056 ± 0.067
L53W	-0.164 ± 0.076
L53Y	-0.062 ± 0.16
C54F	-0.448 ± 0.45
C54S	-0.076 ± 0.42
C54Y	-0.94 ± 0.25
D55A	-0.043 ± 0.059
D55C	-0.099 ± 0.088
D55E	-0.017 ± 0.072
D55F	-0.06 ± 0.097
D55G	-0.018 ± 0.061
D55H	-0.227 ± 0.11
D55I	-0.149 ± 0.098
D55K	0.056 ± 0.084

Variant	abundance fitness
D55L	-0.027 ± 0.057
D55M	0.006 ± 0.088
D55N	0.017 ± 0.091
D55P	-0.027 ± 0.088
D55Q	0.011 ± 0.08
D55R	-0.118 ± 0.066
D55S	-0.059 ± 0.068
D55T	-0.087 ± 0.085
D55V	-0.012 ± 0.057
D55W	-0.106 ± 0.074
D55Y	-0.159 ± 0.086
P56A	-0.035 ± 0.064
P56C	-0.041 ± 0.11
P56D	-0.035 ± 0.11
P56F	0.098 ± 0.17
P56G	0.024 ± 0.069
P56H	-0.22 ± 0.11
P56K	-0.055 ± 0.13
P56L	0.044 ± 0.065
P56Q	-0.068 ± 0.12
P56R	0.023 ± 0.065

Variant	abundance fitness
P56S	-0.081 ± 0.082
P56T	0.016 ± 0.11
P56W	-0.038 ± 0.096
P56Y	-0.049 ± 0.19
H57A	-0.022 ± 0.15
H57C	0.175 ± 0.2
H57D	-0.051 ± 0.13
H57E	-0.505 ± 0.35
H57F	0.076 ± 0.26
H57G	0.013 ± 0.16
H57I	-0.408 ± 0.43
H57K	-0.092 ± 0.43
H57N	0.104 ± 0.16
H57P	-0.006 ± 0.1
H57Q	0.009 ± 0.22
H57R	-0.052 ± 0.11
H57S	-0.268 ± 0.14
H57T	0.109 ± 0.16
H57V	0.173 ± 0.19
H57W	-0.348 ± 0.23
H57Y	0.017 ± 0.074

Variants of: B2
Assay: as above
Details: Homo sapiens

Variant	abundance fitness
A33I	0.038 ± 0.17
S23E	0.089 ± 0.11
L38Y	-0.419 ± 0.14
F18D	-0.227 ± 0.098
S23C	-0.004 ± 0.1
E26Q	-0.003 ± 0.094
I20K	0.153 ± 0.11
H45I	-0.114 ± 0.088
T7N	-0.038 ± 0.092
E31H	-0.109 ± 0.14
E31D	-0.07 ± 0.1
L14Q	-0.866 ± 0.13
K41D	0.183 ± 0.15
E54T	-0.189 ± 0.091
R5E	0.163 ± 0.11
V42Y	-0.065 ± 0.11
P2M	0.143 ± 0.14
Q28L	-0.102 ± 0.077
F18K	-0.044 ± 0.15
K53Q	-0.072 ± 0.12
I13M	-0.057 ± 0.084
I29W	-0.16 ± 0.091
E34A	-0.011 ± 0.084
E34L	-0.054 ± 0.085
K41W	-0.123 ± 0.084

Variant	abundance fitness
L11I	-0.14 ± 0.13
N21K	-0.187 ± 0.17
L51I	-0.237 ± 0.22
I29H	-0.347 ± 0.25
H45P	-0.207 ± 0.067
Q40Y	-0.157 ± 0.13
K44I	-0.25 ± 0.13
K12H	-0.34 ± 0.13
F52L	-0.005 ± 0.094
P2A	-0.134 ± 0.097
G37K	-0.054 ± 0.1
Y17T	-0.058 ± 0.088
M32P	-1.2 ± 0.24
K44G	0.001 ± 0.1
G37A	-0.164 ± 0.076
H45T	0 ± 0.066
N21D	-0.028 ± 0.13
S36M	-0.213 ± 0.12
Q10G	-0.514 ± 0.068
G37E	-0.092 ± 0.088
L38S	-0.545 ± 0.081
I43K	-1.19 ± 0.19
Q40P	-0.114 ± 0.095
Q10T	-0.245 ± 0.092
I20L	-0.051 ± 0.081

Variant	abundance fitness
F47C	-0.134 ± 0.11
R3H	0.042 ± 0.13
N49E	0.079 ± 0.091
V42W	-0.112 ± 0.095
Q30T	-0.025 ± 0.097
A33K	-0.126 ± 0.25
S36K	-0.824 ± 0.15
R55S	-0.011 ± 0.09
I13P	-0.612 ± 0.14
F18I	-0.313 ± 0.1
S36C	-0.002 ± 0.1
G37L	-0.014 ± 0.086
T4P	-0.139 ± 0.12
A16V	-0.211 ± 0.089
G37I	-0.602 ± 0.18
E27R	-0.02 ± 0.1
A33R	0.05 ± 0.13
S39F	-0.323 ± 0.28
Q40A	-0.14 ± 0.079
F52M	-0.131 ± 0.19
Q56E	-0.77 ± 0.38
I20N	0.03 ± 0.11
E26K	0.039 ± 0.14
E27H	-0.59 ± 0.49
K53H	0.023 ± 0.13

Variant	abundance fitness
Q40E	-0.253 ± 0.11
S23G	-0.211 ± 0.067
D9G	-0.14 ± 0.078
G37Y	-0.429 ± 0.14
K35P	-1.09 ± 0.16
I6S	-0.245 ± 0.07
K35G	-0.242 ± 0.07
A16Q	0.03 ± 0.11
N22V	0.05 ± 0.45
A16E	0.178 ± 0.14
I29C	-0.149 ± 0.1
V42T	-0.057 ± 0.1
A33F	-0.036 ± 0.11
K41G	-0.042 ± 0.069
R3G	0.099 ± 0.064
K41Q	-0.235 ± 0.12
S36H	-0.367 ± 0.13
I29Y	0.048 ± 0.17
D19Y	-0.001 ± 0.15
V42G	-0.077 ± 0.067
R48F	-0.142 ± 0.1
H45L	-0.042 ± 0.062
I13Y	-0.027 ± 0.21
R5Y	0.082 ± 0.073
N21Q	-0.247 ± 0.17

Variant	abundance fitness
K53S	0.016 ± 0.084
G37R	-0.032 ± 0.073
Q30I	0.196 ± 0.24
R48W	-0.185 ± 0.084
L51S	-0.1 ± 0.1
F52D	-0.085 ± 0.24
I20H	-0.134 ± 0.12
I6D	-0.148 ± 0.13
Q56S	-0.502 ± 0.22
F47Y	-0.096 ± 0.15
L51R	-0.092 ± 0.089
L11N	-0.024 ± 0.17
Q10S	-0.172 ± 0.076
D8G	-0.004 ± 0.067
Q10F	-0.616 ± 0.19
I20D	-0.276 ± 0.11
L51W	-0.163 ± 0.1
E27K	-0.054 ± 0.25
K44M	-0.098 ± 0.14
P24S	-0.553 ± 0.072
T4H	0.01 ± 0.17
F47W	-0.197 ± 0.093
Q40L	-0.003 ± 0.071
S23K	-0.009 ± 0.13
L11Q	-0.147 ± 0.1

Variant	abundance fitness
Q30K	0.146 ± 0.13
Q30N	-0.08 ± 0.26
K35L	-0.261 ± 0.072
L51K	-0.043 ± 0.15
P2I	-0.067 ± 0.11
W46R	-0.516 ± 0.073
L14N	-1.18 ± 0.31
S23M	-0.019 ± 0.14
I20F	-0.006 ± 0.09
E27T	-0.185 ± 0.22
S23R	-0.127 ± 0.08
Q28M	-0.153 ± 0.11
Q30H	-0.072 ± 0.17
Q56C	-0.802 ± 0.28
S23T	-0.071 ± 0.13
D9Y	-0.041 ± 0.069
N22H	-0.359 ± 0.23
Q56H	-0.363 ± 0.24
F52S	-0.067 ± 0.12
S36W	-0.42 ± 0.084
I43P	-1.09 ± 0.14
Q30C	-0.275 ± 0.17
R55T	-0.158 ± 0.12
K12C	-0.112 ± 0.099
Q28N	-0.329 ± 0.14

Variant	abundance fitness
T4A	-0.271 ± 0.084
F47S	-0.287 ± 0.079
A33S	-0.025 ± 0.11
A33Q	0.127 ± 0.27
D19V	-0.071 ± 0.077
A16K	-0.129 ± 0.18
Y17I	-0.155 ± 0.085
T50R	-0.032 ± 0.065
E34M	-0.221 ± 0.13
A33D	-0.337 ± 0.14
K44C	-0.204 ± 0.13
I43V	-0.073 ± 0.068
I6Q	-0.389 ± 0.11
L11Y	0.155 ± 0.13
D8V	-0.015 ± 0.069
G37N	0.032 ± 0.16
L51A	0.007 ± 0.098
S36Y	-0.267 ± 0.1
K44N	-0.042 ± 0.11
R5I	0.067 ± 0.072
I43Q	-1.02 ± 0.14
D8H	-0.019 ± 0.16
A16Y	-0.013 ± 0.095
A33V	-0.169 ± 0.14
W46A	-0.313 ± 0.08

Variant	abundance fitness
K53P	-0.285 ± 0.12
D8C	0.046 ± 0.11
V42D	0.093 ± 0.099
A33W	-0.582 ± 0.42
F47D	-0.708 ± 0.12
Q10C	-0.277 ± 0.11
G37P	-0.805 ± 0.11
K12G	-0.146 ± 0.068
N49H	0.141 ± 0.1
T4M	0.224 ± 0.11
A16H	0.108 ± 0.083
N21V	-0.189 ± 0.12
T4V	-0.116 ± 0.078
D19G	-0.089 ± 0.067
L38R	-0.746 ± 0.07
Y17G	-0.075 ± 0.088
F18R	-0.018 ± 0.067
E54R	-0.1 ± 0.066
W46V	-0.221 ± 0.074
Q28H	-0.046 ± 0.1
Q56G	-0.439 ± 0.17
K53Y	-0.064 ± 0.17
R5Q	0.183 ± 0.084
Q40F	0.038 ± 0.16
R5V	0.022 ± 0.067

Variant	abundance fitness
N49T	0.025 ± 0.089
K35E	-0.215 ± 0.1
K12S	-0.09 ± 0.081
N21Y	-0.156 ± 0.11
K53V	-0.157 ± 0.091
H45M	-0.059 ± 0.089
N22P	0.201 ± 0.24
I6E	-0.18 ± 0.2
S23A	0.041 ± 0.08
H45C	-0.181 ± 0.094
E34G	0.033 ± 0.068
D9L	-0.043 ± 0.064
R1C	-0.033 ± 0.14
R15A	-0.215 ± 0.076
K41S	-0.141 ± 0.087
I13E	-0.17 ± 0.12
K35I	-0.518 ± 0.13
K53F	-0.284 ± 0.18
E26S	-0.076 ± 0.078
L11F	-0.134 ± 0.086
R3M	0.216 ± 0.11
R1S	-0.284 ± 0.096
N21M	0.203 ± 0.18
E34W	-0.276 ± 0.098
G37H	-0.137 ± 0.15

Variant	abundance fitness
R55A	-0.025 ± 0.088
S39R	0.007 ± 0.21
I13Q	0.026 ± 0.11
R1I	-0.116 ± 0.12
A33G	0.056 ± 0.16
F52N	0.134 ± 0.15
D19K	0.082 ± 0.13
K35Q	-0.18 ± 0.098
Q40N	-0.217 ± 0.19
V42C	-0.002 ± 0.087
S39L	-0.767 ± 0.25
K12D	-0.212 ± 0.12
Q10N	-0.099 ± 0.19
R1P	-0.512 ± 0.22
D9R	-0.134 ± 0.078
I6F	0.002 ± 0.07
M32E	-1.01 ± 0.15
I13A	-0.372 ± 0.084
D8Y	-0.238 ± 0.14
I20A	0.105 ± 0.079
V42E	0.031 ± 0.12
P24N	-0.691 ± 0.091
A16N	0.16 ± 0.093
F52I	0.014 ± 0.14
N21S	-0.048 ± 0.083

Variant	abundance fitness
F47N	-0.398 ± 0.13
K53D	-0.041 ± 0.16
E54C	-0.205 ± 0.093
W46D	-0.297 ± 0.15
L38E	-0.557 ± 0.1
T4Q	-0.284 ± 0.13
D8W	-0.092 ± 0.081
I13V	-0.027 ± 0.076
R48Y	-0.289 ± 0.14
T7E	0.082 ± 0.19
D19N	0.07 ± 0.15
W46L	-0.239 ± 0.069
D8T	-0.172 ± 0.1
W46Q	-0.483 ± 0.1
E26A	-0.027 ± 0.077
R5W	-0.184 ± 0.1
L51H	-0.071 ± 0.2
S39T	-0.135 ± 0.31
S23I	-0.522 ± 0.16
I13T	0.043 ± 0.11
S36T	-0.108 ± 0.094
